In patent publication US5760185 one finds Minimum Effective Concentration for Neutralization data, which are given here for 2 molecules.

The target of test [1] is feline herpes virus-1 (FHV-1) viral particle, K1 strain.
Test [2] has the same target. The source holds these as a separate data set.

Like-named read-outs stand apart in the source and are kept apart here.

B1: anti-FHV-1 chimeric antibody FH2 (antibody, V domains shown)
VH: QVTLKESGPGILQPSQTLSLTCSFSGFSLSTSGMGAGWIRQPSGKGLEWLAHIWWDDVKRYNPALKSRLTISKDTSSSQVFLKIASVDTADTATYFCVRSQIYFDYDGAWFPFWGQGTLVTVSA
VL: DIVLTQSPATLSVTPGDSVSLSCRASQSISNNLHWYQQKSHESPRLLIKYASQSISGIPSRFSGSGSGTDFTLSINSVETEDFGMYFCQQSNSWPHTFGAGTKLELKS
On to B1, for which the Minimum Effective Concentration for Neutralization in test [1] turned out to be 1.95 µg/mL.

B2: mouse monoclonal antibody JH2 (antibody, V domains shown)
VH: QVTLKESGPGILQPSQTLSLTCSFSGFSLSTSGMGAGWIRQPSGKGLEWLAHIWWDDVKRYNPALKSRLTISKDTSSSQVFLKIASVDTADTATYFCVRSQIYFDYDGAWFPFWGQGTLVTVSA
VL: DIVLTQSPATLSVTPGDSVSLSCRASQSISNNLHWYQQKSHESPRLLIKYASQSISGIPSRFSGSGSGTDFTLSINSVETEDFGMYFCQQSNSWPHTFGAGTKLELK
As to B2, the Minimum Effective Concentration for Neutralization in test [2] was found to be 0.39 µg/mL; in test [1] it was 1.25 µg/mL.
